From the supplement of paper PMC7877785 come the findings set out here.

± gives the uncertainty stated by the source.

A short description of the series: self-splicing fitness, log relative to wild type (ln ratio); higher = more splicing; Tetrahymena group I intron in knt gene, E. coli kanamycin selection, DiMSum; sequences stand for … in CUCUCU…GGAGGGAAAAGUUAUCAGGCAUGCACCUGGUAGCUAGUCUUUAAACCAAUAGAUUGCAUCGGUUUAAAAGGCAAGACCGUCAAAUUGCGGGAAAGGGGUCAACAGCCGUUCAGUACCAAGUCUCAGGGGAAACUUUGAGAUGGCCUUGCAAAGGGUAUGGUAAUAAGCUGACGGACAUGGUCCUAACCACGCAGCCAAGUCCUAAGUCAACAGAUCUUCUGUUGAUAUGGAUGCAGUUCACAGACUAAAUGUCGGUCGGGGAAGAUGUAUUCUUCUCAUAAGAUAUAGUCGGACCUCUCCUUAAUGGGAGCUAGCGGAUGAAGUGAUGCAACACUGGAGCCGCUGGGAACUAAUUUGUAUGCGAAAGUAUAUUGAUUAGUUUUGGAGUACUCGUGGUCG
Summed up: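 Fitness was computed with DiMSum as the error-weighted combination of replicate fold changes, kanamycin versus none, each normalised to wild type. The library randomised all eight intron nucleotides of the P1ex region, with the intron placed in the knt kanamycin-resistance gene on pET-22b(+) in E. coli BL21(DE3). Six replicate transformations were grown overnight at 37°C or 30°C on LB agar with or without 25 μg/mL kanamycin, plus 100 μg/mL carbenicillin, 50 μM IPTG and 0.2% rhamnose. Pooled colonies were amplicon-sequenced on an Illumina HiSeq 2500.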

As for UAUUAGCAAUAUUACGACAA, the “self-splicing fitness (ln)” value reads like this: (30 °C) -0.602 ± 0.17; (37 °C) -0.127 ± 0.24.
On the same counts, the results for UACCAGCAAUAUUACGGCAG are -0.582 ± 0.081 and 0.685 ± 0.1.
Take CCCAAGCAAUAUUACGCCUG: the “self-splicing fitness (ln)” value runs as follows: (30 °C) -3.12 ± 0.19; (37 °C) -2.88 ± 0.27.
On the same counts, the results for CAGAAGCAAUAUUACGUCUU are -1.7 ± 0.089 and -0.306 ± 0.11.
In the case of AGUUAGCAAUAUUACGCAAC, the “self-splicing fitness (ln)” value is, setting by setting: (30 °C) -2.75 ± 0.24; (37 °C) -3.1 ± 0.37.
Take GAGCAGCAAUAUUACGCCGC: the “self-splicing fitness (ln)” value is -1.63 ± 0.22 (30 °C) and -2.43 ± 0.38 (37 °C).
Turning to CUAGAGCAAUAUUACGUCUG, the “self-splicing fitness (ln)” value is, setting by setting: (30 °C) 0.15 ± 0.094; (37 °C) 0.417 ± 0.11.
